Test system: MS2 coat protein
Test: apparent KD of MS2 coat protein; designed switch direction (-1 OFF switch, 1 ON switch): -1; higher = weaker reporter binding
Procedure, shortened: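 Stalled E. coli RNA polymerase transcribed designed RNA switches on Illumina chips, which were then titrated with SNAP-549-labelled MS2 coat protein, doubling from 0.7 or 1.5 nM to 3 µM. Steps lasted from 0.8–1.5 h at the lowest concentration to 10–20 min at the highest. The apparent KD is each design's median over clusters of curve-fitted normalised fluorescence.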

[1] = Eterna round: R95, input ligand: microRNA oligo, concentration not stated
[2] = Eterna round: R95, input ligand: FMN 200 uM
[3] = Eterna round: R95, input ligand: none
[4] = input ligand: microRNA oligo, concentration not stated

GUCCAGUUAGGAUAUCAAUGCCACAACAUGAGGAUCACCCAUGUUUGGGUCCCUCACCAAUGAGAAGGAACGGGAC [Esteenedso] (puzzle: Exclusion 5)
apparent KD of MS2 coat protein [1]: 32.1 nM

ACCACCUUAGUCAGGAUAUAGCUUCUAGCAAGAUACUAGAAGGGACAUGAGGAUCACCCAUGUAAAGGUGCUAA [Ramais] (puzzle: Brourd's mod of Exclusion 4)
apparent KD of MS2 coat protein [2]: 25.3 nM
apparent KD of MS2 coat protein [1]: 29 nM
apparent KD of MS2 coat protein [3]: 27.2 nM

AAAAUGGUCUAGGAUAUGACAAAUCUGAGCACGUCAGAAGGAGACACAUGAGGAUCACCCAUGUGGGUGCGAAA [Erteedza] (puzzle: Exclusion 6)
apparent KD of MS2 coat protein [2]: 324 nM
apparent KD of MS2 coat protein [1]: 31.8 nM
apparent KD of MS2 coat protein [3]: 35.2 nM

CGUACUAACACGAAAGUGUUAGUACAAUAAGCUUGUGAAACAUGAGGAUCACCCAUGUCCUCAUAAGCUCGUCUUAA [salish99_TOv2_r3_006] (puzzle: Sensor v3, turn-off variant 2)
apparent KD of MS2 coat protein [2]: 14.1 nM
apparent KD of MS2 coat protein [1]: 268 nM
apparent KD of MS2 coat protein [3]: 12.1 nM

UUACAAUGUCGCUUAAUAGCUUUUUGCUCGUCUUAUAUUACAUGAGGAUCACCCAUGUAGAUCAUGUGGCGUGACCU [JL ViennaUCT Maridi mod 7] (puzzle: Sensor v3, turn-off variant 2)
apparent KD of MS2 coat protein [2]: 206 nM
apparent KD of MS2 coat protein [1]: 40.7 nM
apparent KD of MS2 coat protein [3]: 210 nM

CGUGACUCAGGAUAUCGAUUAUAUCACAUGAGGAUCACCCAUGUCCAGCGAAAGCUGGAGUGAGAAGGGAGUCACG [Fiskers Ex 5 - 49] (puzzle: Exclusion 5)
apparent KD of MS2 coat protein [2]: 47.6 nM
apparent KD of MS2 coat protein [1]: 107 nM
apparent KD of MS2 coat protein [3]: 109 nM

AAAAAACAUGAGGAUCACCCAUGUAAGGAUAUCUAAAAUAAAAGAAAAAUAAAGAAAAGGAGAAGGUACAAGGA [JL wbt mod 25] (Eterna round: R96, puzzle: Exclusion 1)
apparent KD of MS2 coat protein (input ligand: FMN 200 uM): 32.5 nM
apparent KD of MS2 coat protein [4]: 23.4 nM
apparent KD of MS2 coat protein (input ligand: none): 29.8 nM

AGUGUGUGGCAGGAUAUGCGAUUUGUAGGUGAAGCAGAAGGGUCUACAUGAGGAUCACCCAUGUGUGCGGUUGA [Ex6 #18] (Eterna round: R97, puzzle: Exclusion 6)
apparent KD of MS2 coat protein (input ligand: FMN 200 uM): 457 nM
apparent KD of MS2 coat protein (input ligand: none): 216 nM

UCUCGGACAGGAUAUCUGUCAUCUGACAUGAGGAUCACCCAUGUCCUCGCCGCCAACCCAAGAGAAGGGUCCCACA [Eternabot (L1) Solution 76] (Eterna round: R97, puzzle: Exclusion 5)
apparent KD of MS2 coat protein (input ligand: FMN 200 uM): 99.2 nM
apparent KD of MS2 coat protein (input ligand: none): 120 nM

UUUGUUUAUGUGAGGAUAUACUGUUUGUUUUGUUUGUAGAAGGUACAUGAGGAUCACCCAUGUUUUGUAUUUAU [JR_BME4_Sub034] (puzzle: Brourd's mod of Exclusion 4)
apparent KD of MS2 coat protein [1]: 18.4 nM

UUUUUCAGGCCAGAUCCUCACAUGAGGAUCACCCAUGUGCUCGUCUGUUUUCGCUCUUUCUUUUUUUUGGUUGUGCU [Level Boss var2-18] (puzzle: Sensor v3, turn-off variant 1)
apparent KD of MS2 coat protein [2]: 174 nM
apparent KD of MS2 coat protein [1]: 31.2 nM
apparent KD of MS2 coat protein [3]: 259 nM

CCUUUGUCAGGAUAUCAGAAAACGCUCGUAGGGAGCGCAAAUGAGAAGGGACAUGAGGAUCACCCAUGUAAAGA [Edmareen] (puzzle: Exclusion 4)
apparent KD of MS2 coat protein [2]: 219 nM
apparent KD of MS2 coat protein [1]: 45.1 nM
apparent KD of MS2 coat protein [3]: 60.3 nM

UUGUUAUAUGUAGGAUAUGCAUGUUAUUAUUAUGCAGAAGGACAUGAGGAUCACCCAUGUGUAUUAUUAUUAUAUAUUAUAUAU [Title] (Eterna round: R96, puzzle: Exclusion NG 1)
apparent KD of MS2 coat protein (input ligand: FMN 200 uM): 21.2 nM
apparent KD of MS2 coat protein [4]: 14.1 nM
apparent KD of MS2 coat protein (input ligand: none): 20.1 nM

AAUACACAUGAGGAUCACCCAUGUUAGGAUAUGAGCAGACAGACAGACAGACAGACGAUCAGAAGGAAUAGGAA [Excls1-V] (puzzle: Exclusion 1)
apparent KD of MS2 coat protein [2]: 26.1 nM
apparent KD of MS2 coat protein [1]: 25.4 nM
apparent KD of MS2 coat protein [3]: 32.9 nM

UAUUAGCAAGUAAGGUCCCACAUGAGGAUCACCCAUGUGCUCGUCACCUCAGGUACGGAGCGGAAACUCCCGAUAUG [Sensor-V1 #91] (Eterna round: R97, puzzle: Sensor, turn-off variant 1)
apparent KD of MS2 coat protein (input ligand: FMN 200 uM): 81.4 nM
apparent KD of MS2 coat protein (input ligand: none): 83.1 nM

CUUUUGUGAGGAUAUCAGUAGUAAAAAAAUAAAUUUACUACUGAGAAGGCACAUGAGGAUCACCCAUGUUCCUC [salish99_ex4_r3_025] (puzzle: Exclusion 4)
apparent KD of MS2 coat protein [1]: 42.9 nM

UAUUUAAGAGGAUAUACAUGAGGAUCACCCAUGUAUAAUAAAAUACAUGAUUUUUUAUGUAGAAGGCUUGGGUA [-19.1, -18.3 kcal, 36% A] (Eterna round: R97, puzzle: Exclusion 3)
apparent KD of MS2 coat protein (input ligand: FMN 200 uM): 72 nM
apparent KD of MS2 coat protein (input ligand: none): 21.1 nM

UUGCCACAUGAGGAUCACCCAUGUGAGGAUAUGGCCCGCCCGGCGUGUGCUGGUUUUGUCAGAAGGCGCGUGGG [salish99_ex1_r4_029] (Eterna round: R97, puzzle: Exclusion 1)
apparent KD of MS2 coat protein (input ligand: FMN 200 uM): 52.4 nM
apparent KD of MS2 coat protein (input ligand: none): 27.9 nM

CUAAUACAUCAGGAUAUGAUAGCUUAUAGCAUAUCAGAAGGGAUGACAUGAGGAUCACCCAUGUCAAAGGGUGA [eternacac ex6r4 sub18] (Eterna round: R97, puzzle: Exclusion 6)
apparent KD of MS2 coat protein (input ligand: FMN 200 uM): 130 nM
apparent KD of MS2 coat protein (input ligand: none): 590 nM

CCCUCACUUGAGGAUCACCCAAGUCAGGAUAUCUCCCGCCCAACACCAUCCGGGCGCCAGAGAAGGGACUCAAA [Soenonor] (Eterna round: R97, puzzle: Exclusion 1)
apparent KD of MS2 coat protein (input ligand: FMN 200 uM): 24.4 nM
apparent KD of MS2 coat protein (input ligand: none): 17.5 nM

GUAUGUCUAGGAUAUAUAUUGGAAUGUCCGUGUCCUAGCCAACAUGAGGAUCACCCAUGUAGAAGGAGAUGUGU [Eternabot (L1) Solution 97] (Eterna round: R97, puzzle: Exclusion 2)
apparent KD of MS2 coat protein (input ligand: FMN 200 uM): 43.5 nM
apparent KD of MS2 coat protein (input ligand: none): 52.8 nM

CUUUAGCUAGGAUAUACAUGAGGAUCACCCAUGUUAGCGGUCAAUUGGGCCGCGGGUUGUAGAAGGAGCAUUAA [Aniscerile] (puzzle: Exclusion 3)
apparent KD of MS2 coat protein [1]: 28.6 nM

AUAAUGUAAGGAUAUCAGUCGACUAGCCUCGGCUAGUCGACUGAGAAGGUACAUGAGGAUCACCCAUGUGAAUA [E4/16-A2] (Eterna round: R97, puzzle: Exclusion 4)
apparent KD of MS2 coat protein (input ligand: FMN 200 uM): 228 nM
apparent KD of MS2 coat protein (input ligand: none): 52.1 nM

GCCGAAAAUGAGAGGAUAUGCCUAUGGAUACGUAGGCAGAAGGCACAUGAGGAUCACCCAUGUUCCUCAACGGC [JL-BMX4-4.26 Eli mod] (Eterna round: R97, puzzle: Brourd's mod of Exclusion 4)
apparent KD of MS2 coat protein (input ligand: FMN 200 uM): 19.4 nM
apparent KD of MS2 coat protein (input ligand: none): 14.6 nM

CGUCUGUCAGGAUAUAGUUACAUAGACAUGAGGAUCACCCAUGUGACGUGGGACUAGUGACUAGAAGGGACGAACG [EX5 #71] (Eterna round: R97, puzzle: Exclusion 5)
apparent KD of MS2 coat protein (input ligand: FMN 200 uM): 58.7 nM
apparent KD of MS2 coat protein (input ligand: none): 28.8 nM

AGUAACUAUCACGAAAGUGAUAGUUACAAUAGCAAGUGAACAUGAGGAUCACCCAUGUCCUCAUUUGCUCGUCUUAU [Sensor 3 - 20] (puzzle: Sensor v3, turn-off variant 2)
apparent KD of MS2 coat protein [2]: 16.1 nM
apparent KD of MS2 coat protein [1]: 632 nM
apparent KD of MS2 coat protein [3]: 13.6 nM

AAGAAACAUGAGGAUCACCCAUGUGAGGAUAUGUAAAAUAAAAUAAAAUAAAGAAUAAACAGAAGGCACAAAGG [Mat - Mod of Hog D24] (puzzle: Exclusion 1)
apparent KD of MS2 coat protein [2]: 77.9 nM
apparent KD of MS2 coat protein [1]: 64.5 nM
apparent KD of MS2 coat protein [3]: 49.7 nM

GAGGCAUGCUGAGGUCCACACAUGAGGAUCACCCAUGUAAUGACAAGCUUUUUCCUCGUCUUAUCGCUAUCGCGUUC [Dilaenla] (Eterna round: R96, puzzle: Sensor v3, turn-off variant 1)
apparent KD of MS2 coat protein (input ligand: FMN 200 uM): 13.1 nM
apparent KD of MS2 coat protein [4]: 22.2 nM
apparent KD of MS2 coat protein (input ligand: none): 16.3 nM

UAAACAUGGAUAUAACAGUACAUGAGGAUCACCCAUGUUAAUAUGAUAGAUUAUAACAAGUUUUUUUGUCGUCUUAA [Tabletop] (Eterna round: R97, puzzle: Sensor, turn-off variant 1)
apparent KD of MS2 coat protein (input ligand: FMN 200 uM): 85 nM
apparent KD of MS2 coat protein (input ligand: none): 88 nM

CUUGUUUAUGUAGGAUAUGCCUGGCGUGCCUUUGCAGAAGGACAUGAGGAUCACCCAUGUAACAUGAGGCUCCACCUUGUCGCC [salish99_ExNG1_r04_117] (Eterna round: R96, puzzle: Exclusion NG 1)
apparent KD of MS2 coat protein [4]: 111 nM

CCUCUACAUGAGGAUCACCCAUGUGAGGAUAUCAAAGUCAGAGCGGCUCUCUGACUCAUGAGAAGGUGCAUGAA [EX1 A.13] (Eterna round: R97, puzzle: Exclusion 1)
apparent KD of MS2 coat protein (input ligand: FMN 200 uM): 30.6 nM
apparent KD of MS2 coat protein (input ligand: none): 21.6 nM

CGAUGUUGUGUCAGGAUAUGCGUUGCGAAAGCAAUGUAGAAGGGACAUGAGGAUCACCCAUGUUCUAACCAUCG [Omei A 9] (puzzle: Brourd's mod of Exclusion 4)
apparent KD of MS2 coat protein [1]: 11.2 nM

Reference: the supplement of paper PMC9170038
